Results: US20120213785A1

How the values were obtained:
[1] = target: Notch3-LD/Fc fusion protein (human Notch3 LIN12/dimerization domain fused to human gamma 1 Fc) (human) [IgG part: P01857]; assay: ELISA on Notch3-LD/Fc
[2] = target: human Notch3 receptor, full-length (human) (UniProt Q9UM47); assay: FACS on 293T cells expressing Notch3 (Notch3/Hyg)
[3] = target: human Notch3 receptor, full-length (human) (UniProt Q9UM47); assay: FACS on Sup-T1 cells naturally expressing Notch3
[4] = target: Notch3-LD/Fc fusion protein (human Notch3 LIN12/dimerization domain fused to human gamma 1 Fc) (human) [IgG part: P01857]; assay: ELISA, plate coated with Notch3-LD/Fc, hybridoma supernatant
[5] = target: Notch3-D1/Fc (human) (UniProt Q9UM47); assay: ELISA on Notch3-domain/Fc fusion proteins
[6] = target: Notch3-D2/Fc (human) (UniProt Q9UM47); assay: ELISA on Notch3-domain/Fc fusion proteins

Chain of human Notch3 receptor, full-length (human) (Q9UM47 40-2321 A2223V limits assumed): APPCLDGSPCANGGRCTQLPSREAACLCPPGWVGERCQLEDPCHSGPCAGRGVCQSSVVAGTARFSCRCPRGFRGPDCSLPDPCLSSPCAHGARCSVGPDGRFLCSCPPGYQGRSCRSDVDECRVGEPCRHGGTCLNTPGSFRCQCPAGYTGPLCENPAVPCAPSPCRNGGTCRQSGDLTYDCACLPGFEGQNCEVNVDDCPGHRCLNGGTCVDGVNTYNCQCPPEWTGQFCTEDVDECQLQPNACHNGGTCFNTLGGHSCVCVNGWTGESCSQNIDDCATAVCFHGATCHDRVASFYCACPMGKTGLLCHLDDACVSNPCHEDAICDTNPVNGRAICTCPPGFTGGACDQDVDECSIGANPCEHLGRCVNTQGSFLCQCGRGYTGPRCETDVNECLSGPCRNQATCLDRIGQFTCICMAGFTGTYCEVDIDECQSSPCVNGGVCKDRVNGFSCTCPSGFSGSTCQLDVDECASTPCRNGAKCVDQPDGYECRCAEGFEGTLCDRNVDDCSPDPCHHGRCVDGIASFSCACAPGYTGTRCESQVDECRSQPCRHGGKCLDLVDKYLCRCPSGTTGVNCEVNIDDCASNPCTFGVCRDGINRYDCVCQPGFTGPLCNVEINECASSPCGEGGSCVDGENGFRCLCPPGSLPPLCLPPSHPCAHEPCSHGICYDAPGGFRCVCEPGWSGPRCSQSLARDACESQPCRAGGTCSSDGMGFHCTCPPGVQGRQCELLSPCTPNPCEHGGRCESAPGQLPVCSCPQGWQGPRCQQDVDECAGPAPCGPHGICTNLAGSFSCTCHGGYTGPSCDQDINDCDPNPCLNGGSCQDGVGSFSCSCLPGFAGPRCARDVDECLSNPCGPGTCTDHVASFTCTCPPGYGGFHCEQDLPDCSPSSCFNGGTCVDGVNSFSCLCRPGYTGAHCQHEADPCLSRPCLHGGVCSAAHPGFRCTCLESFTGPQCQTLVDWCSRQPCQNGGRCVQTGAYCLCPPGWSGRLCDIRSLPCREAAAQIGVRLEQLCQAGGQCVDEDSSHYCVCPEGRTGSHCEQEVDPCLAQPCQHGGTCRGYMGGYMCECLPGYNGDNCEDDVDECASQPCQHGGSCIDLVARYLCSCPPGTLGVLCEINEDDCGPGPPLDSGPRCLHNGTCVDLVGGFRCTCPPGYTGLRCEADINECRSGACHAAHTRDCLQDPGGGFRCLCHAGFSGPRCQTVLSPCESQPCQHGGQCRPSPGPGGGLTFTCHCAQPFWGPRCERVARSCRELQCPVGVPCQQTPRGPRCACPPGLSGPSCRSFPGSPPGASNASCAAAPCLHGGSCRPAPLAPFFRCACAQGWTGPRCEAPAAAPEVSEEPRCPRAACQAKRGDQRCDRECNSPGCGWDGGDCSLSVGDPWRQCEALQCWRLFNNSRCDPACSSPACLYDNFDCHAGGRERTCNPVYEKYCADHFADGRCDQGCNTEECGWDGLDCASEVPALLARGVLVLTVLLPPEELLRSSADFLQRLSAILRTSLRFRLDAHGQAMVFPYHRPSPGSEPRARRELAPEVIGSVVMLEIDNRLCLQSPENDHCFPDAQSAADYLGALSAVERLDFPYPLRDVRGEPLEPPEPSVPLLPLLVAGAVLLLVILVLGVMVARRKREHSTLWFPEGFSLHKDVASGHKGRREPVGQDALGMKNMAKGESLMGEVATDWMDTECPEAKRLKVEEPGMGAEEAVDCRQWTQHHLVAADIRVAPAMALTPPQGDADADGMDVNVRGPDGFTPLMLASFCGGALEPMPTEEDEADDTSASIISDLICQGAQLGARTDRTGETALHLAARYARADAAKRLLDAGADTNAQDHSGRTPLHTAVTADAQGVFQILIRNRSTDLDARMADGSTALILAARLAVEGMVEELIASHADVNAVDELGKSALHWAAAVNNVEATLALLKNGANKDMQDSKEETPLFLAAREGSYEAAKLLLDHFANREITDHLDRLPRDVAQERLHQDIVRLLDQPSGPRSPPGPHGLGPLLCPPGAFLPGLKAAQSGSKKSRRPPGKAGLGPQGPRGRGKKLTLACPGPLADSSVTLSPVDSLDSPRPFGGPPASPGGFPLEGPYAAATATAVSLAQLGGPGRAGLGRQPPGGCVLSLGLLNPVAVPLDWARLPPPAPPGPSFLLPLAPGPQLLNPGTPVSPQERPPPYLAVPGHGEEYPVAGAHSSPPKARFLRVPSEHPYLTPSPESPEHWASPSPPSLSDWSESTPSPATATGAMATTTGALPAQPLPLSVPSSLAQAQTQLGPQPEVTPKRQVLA
Chain of Notch3-LD/Fc fusion protein (human Notch3 LIN12/dimerization domain fused to human gamma 1 Fc) (human) [IgG part: P01857] (P01857 other isoform, or with tags, fused parts or gaps limits assumed): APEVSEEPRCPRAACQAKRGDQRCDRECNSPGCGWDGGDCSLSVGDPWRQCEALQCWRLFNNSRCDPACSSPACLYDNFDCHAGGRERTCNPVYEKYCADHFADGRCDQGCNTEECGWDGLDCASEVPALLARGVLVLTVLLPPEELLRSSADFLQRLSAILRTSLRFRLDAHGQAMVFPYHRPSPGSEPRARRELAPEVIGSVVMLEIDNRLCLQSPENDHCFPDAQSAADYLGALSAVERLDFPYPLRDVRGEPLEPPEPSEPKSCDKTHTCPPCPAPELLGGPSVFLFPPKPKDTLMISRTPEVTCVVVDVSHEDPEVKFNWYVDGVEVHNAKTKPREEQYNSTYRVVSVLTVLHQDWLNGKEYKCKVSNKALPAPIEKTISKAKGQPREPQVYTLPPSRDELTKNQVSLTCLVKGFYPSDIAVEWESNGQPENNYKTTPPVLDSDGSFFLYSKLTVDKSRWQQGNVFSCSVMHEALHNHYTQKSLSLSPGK

Control IgG1 MAb (antibody)
ELISA OD reading (mean) [1]: 0.063 OD
mean fluorescent intensity [2]: 24.2 MFI
mean fluorescent intensity [3]: 24.5 MFI
ELISA OD reading (mean) [4]: 0.019 OD (450 nm)

B1: anti-Notch3 monoclonal antibody MAb 256A-13 (antibody, IgG1, V domains shown)
VH: SQVQLQQSGAELAKPGTSVKMACKASGYTFTTHWMNWVKQRPGQGLEWIGTINPSNDFTDCNQKFKDKAILTADKSSSTAYMQLSSLTSEDSAIYYCASGLTARAWFAYWGQGTLVTVSAA
VL: RATISCRASQSVTTSNYSYMHWFQQKPGQPPKLLIKYASNLDSGVPARFSGSGSGTDFTLNIHPVEEEDTATFYCQHSWEIPYTFGGGTNLEIKRADAAPTV
ELISA OD reading [5]: 0.015 OD
ELISA OD reading [6]: 0.015 OD
